Experimental findings from PMC4319893, “Targeting Protein-Protein Interactions with Trimeric Ligands: High Affinity Inhibitors of the MAGUK Protein Family” (PLoS ONE, 2015) are described below.

The target in the assay is PSD-95 PDZ3 (human). The assay can be described thus: fluorescence polarisation; truncation study of CRIPT C-terminal peptides on PSD-95 PDZ3 and PSD-95 FL (S1 Table); probe not told. A general note: In fluorescence polarisation assays a small probe gives low polarisation when free and higher when bound to something large.

Take IETAV: the affinity was over 50 µM.
